Tests used:
[1] = target: human CD3 on Jurkat cells (human) (UniProt P07766); assay: competition with 125I-UCHT1 on Jurkat cells, COS-7 preparation at 100 nM
[2] = target: human CD3 on Jurkat cells (human) (UniProt P07766); assay: competition with 125I-UCHT1 on Jurkat cells, COS-7 preparation at 1 nM
[3] = target: human CD3 on Jurkat cells (human) (UniProt P07766); assay: competition with 125I-UCHT1 on Jurkat cells, SP2/0 preparation at 1 nM
[4] = target: human CD3 on Jurkat cells (human) (UniProt P07766); assay: competition with 125I-UCHT1 on Jurkat cells, SP2/0 preparation at 100 nM
[5] = target: human CD3 on Jurkat cells (human) (UniProt P07766); assay: competition with 125I-UCHT1 on Jurkat cells, competitor at 100 nM
[6] = target: human CD3 on Jurkat cells (human) (UniProt P07766); assay: competition with 125I-UCHT1 on Jurkat cells, competitor at 1 nM
[7] = target: human FcR; assay: cell-based or functional assay
[8] = target: human CD3 on Jurkat cells (human) (UniProt P07766); assay: cell-based or functional assay

UniProt P07766, sequence (P07766 23-207): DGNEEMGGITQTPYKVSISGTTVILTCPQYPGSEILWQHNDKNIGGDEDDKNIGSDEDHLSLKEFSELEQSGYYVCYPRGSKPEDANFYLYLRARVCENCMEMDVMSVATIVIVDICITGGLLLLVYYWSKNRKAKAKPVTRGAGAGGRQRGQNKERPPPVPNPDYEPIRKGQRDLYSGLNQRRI

In the case of “scUCHT1, chimeric anti-human CD3 single chain antibody (UCHT1 VL-linker-VH fused to human IgM Fc µCH2 to µCH4) (from UniProt P01871 106-453) (scFv)”, the % of 125I-UCHT1 bound to cells [1] is reported as 0%, the % of 125I-UCHT1 bound to cells [2] is reported as 80% and the % of 125I-UCHT1 bound to cells [3] is reported as 80%. The % of 125I-UCHT1 bound to cells [4] was 0%.

“UCHT1 monoclonal antibody (anti-human CD3)” showed a % of 125I-UCHT1 bound to cells [5] of 0%, a % of 125I-UCHT1 bound to cells [6] of 80% and a T-cell proliferation of human PBMCs ([3H]thymidine incorporation), concentration at peak [7] of 100 ng/mL. For the same substance, the T-cell proliferation of human PBMCs ([3H]thymidine incorporation), lowest active concentration [7] was 0.1 ng/mL.

Substance “sFv-DT390, anti-CD3 single-chain immunotoxin with truncated diphtheria toxin (from UniProt P00588 33-422)” has an IC50 (toxicity, inhibition of protein synthesis) [8] of 0.048 nM, a Protein synthesis (% of controls), Jurkat cells, 1 x 10^-10 M, no serum (% of controls) [8] of 18 and a potency relative to UCHT1-CRM9 (fold of UCHT1-CRM9 potency) [8] of 0.0625.

Reference: EP1073463B1
